These are literature values, as cited in PMC5726790.

Data set [1] deals with C5a receptor (Homo sapiens) (UniProt P21730).
Data set [2] addresses CCR7 (Mus musculus) (UniProt P47774).
Sequence of UniProt P47774 (P47774 25-378): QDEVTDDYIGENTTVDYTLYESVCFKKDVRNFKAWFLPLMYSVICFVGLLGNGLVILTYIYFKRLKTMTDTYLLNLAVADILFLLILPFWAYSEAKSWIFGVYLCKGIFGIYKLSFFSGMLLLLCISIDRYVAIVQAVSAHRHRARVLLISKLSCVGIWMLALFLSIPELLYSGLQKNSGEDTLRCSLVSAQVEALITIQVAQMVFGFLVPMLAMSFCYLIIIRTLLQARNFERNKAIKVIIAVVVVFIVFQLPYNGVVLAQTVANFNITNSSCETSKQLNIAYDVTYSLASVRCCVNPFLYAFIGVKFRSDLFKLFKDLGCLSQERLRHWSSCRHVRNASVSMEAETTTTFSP

Sequence of UniProt P21730 (P21730 whole entry): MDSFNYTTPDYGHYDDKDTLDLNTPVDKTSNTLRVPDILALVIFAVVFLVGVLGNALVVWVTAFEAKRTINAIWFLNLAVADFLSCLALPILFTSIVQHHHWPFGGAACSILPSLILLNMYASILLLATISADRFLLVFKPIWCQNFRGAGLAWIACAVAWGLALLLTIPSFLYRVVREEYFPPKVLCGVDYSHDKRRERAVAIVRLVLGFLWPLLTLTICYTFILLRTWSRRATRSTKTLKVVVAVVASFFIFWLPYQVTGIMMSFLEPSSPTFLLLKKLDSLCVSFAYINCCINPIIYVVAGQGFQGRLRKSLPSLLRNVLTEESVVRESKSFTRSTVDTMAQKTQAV

A word on the Kd: it is the constant that tells how readily two partners part at equilibrium. C5a C5a (from UniProt P01031): the Kd in data set [1] was 1 nM.

CCL19 (from UniProt O70460): in data set [2], the Kd is 1.5 nM.
